From PMC8044443, “M. bovis BCG Moreau N-Terminal Loss Leads to a Less Stable Dodecin With Lower Flavin Binding Capacity” (Frontiers in Cellular and Infection Microbiology, 2021)
Like-named read-outs stand apart in the source and are kept apart here.

Tests used:
[1] = molecular target: Recombinant M. bovis BCG Moreau dodecin with C-terminal 6-His tag (M. bovis BCG Moreau); assay: SDS-PAGE and western blotting of oligomer bands
[2] = molecular target: Recombinant M. bovis BCG Moreau dodecin with C-terminal 6-His tag (M. bovis BCG Moreau); assay: SDS-PAGE and western blotting of oligomer bands; remark: listed apart in the source
[3] = molecular target: Native M. bovis BCG Moreau dodecin (M. bovis BCG Moreau (endogenous)); assay: SDS-PAGE and western blotting of oligomer bands; logarithmic phase mycobacterial lysates incubated 30 min at 40 or 80 °C, supernatants on SDS-PAGE, blot with anti-dodecin serum
[4] = molecular target: Native M. bovis BCG Moreau dodecin (M. bovis BCG Moreau (endogenous)); assay: SDS-PAGE and western blotting of oligomer bands; 20 ug total proteins of mycobacterial whole cell lysates (lag, logarithmic and stationary phase; 50 mM HEPES/KOH pH 7.5, 10 mM MgCl2, 60 mM NH4Cl, 10% glycerol), 15% SDS-PAGE, blot with anti-dodecin serum
[5] = molecular target: Recombinant M. tuberculosis H37Rv dodecin with C-terminal 6-His tag (Mycobacterium tuberculosis H37Rv) (UniProt I6XY36); assay: SDS-PAGE and western blotting of oligomer bands
[6] = molecular target: Recombinant M. tuberculosis H37Rv dodecin with C-terminal 6-His tag (Mycobacterium tuberculosis H37Rv) (UniProt I6XY36); assay: SDS-PAGE and western blotting of oligomer bands; remark: listed apart in the source
[7] = molecular target: the molecule itself; assay: SDS-PAGE and western blotting of oligomer bands; 20 ug total proteins of mycobacterial whole cell lysates (lag, logarithmic and stationary phase; 50 mM HEPES/KOH pH 7.5, 10 mM MgCl2, 60 mM NH4Cl, 10% glycerol), 15% SDS-PAGE, blot with anti-dodecin serum

Molecule: Recombinant M. bovis BCG Moreau dodecin with C-terminal 6-His tag (natural protein)
- stoichiometry N [1]: 12
- stoichiometry N [2]: 4

Molecule: Native M. bovis BCG Moreau dodecin (natural protein)
- stoichiometry N [3]: 6
- stoichiometry N [4]: 6

Molecule: Recombinant M. tuberculosis H37Rv dodecin with C-terminal 6-His tag (from UniProt I6XY36 1-70) (natural protein)
- stoichiometry N [5]: 4
- stoichiometry N [6]: 12

B1: Native M. tuberculosis H37Rv dodecin (natural protein)
chain: MSNHTYRVIEIVGTSPDGVDAAIQGGLARAAQTMRALDWFEVQSIRGHLVDGAVAHFQVTMKVGFRLEDS
notes: also called M.tb native dodecin; Tb
- stoichiometry N [7]: 6
